# In publication PMC9603599, “NAC1 Maintains Root Meristem Activity by Repressing the Transcription of E2Fa in Arabidopsis”:
# T1: GST-NAC1(1-199) (Arabidopsis thaliana, UniProt Q84TE6 1-199)
# T1 sequence: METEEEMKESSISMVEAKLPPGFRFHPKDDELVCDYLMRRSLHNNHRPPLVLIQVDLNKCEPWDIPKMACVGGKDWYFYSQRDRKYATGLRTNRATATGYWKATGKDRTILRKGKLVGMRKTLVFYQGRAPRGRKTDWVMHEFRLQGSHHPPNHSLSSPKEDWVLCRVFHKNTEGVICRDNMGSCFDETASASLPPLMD
# B1: E2Fa promoter probe P1 (E2Fa-BIO-F1/R1) (dsDNA)
# DNA 1: CGTGAAATGCCAGTGGTCTATGATCGGATTCTCTGTTTCCCGTTCTCCTTCTTTTTTTGGGCCTTAAATCCGTTT
# DNA 2: AAACGGATTTAAGGCCCAAAAAAAGAAGGAGAACGGAAACAGAGAATCCGATCATAGACCACTGGCATTTCACG
# B2: E2Fa promoter probe P2 (E2Fa-BIO-F2/R2) (dsDNA)
# DNA 1: CGTGTAGAGTTGCGATTTGCAGAGAATTGTGATTCTACAATTGGAGGCAAGATGATGAATGTGTGAACTGATTAGCGTAA
# DNA 2: TTACGCTAATCAGTTCACACATTCATCATCTTGCCTCCAATTGTAGAATCACAATTCTCTGCAAATCGCAACTCTACACG
# Biological target: T1, GST-NAC1(1-199)
# Assay: EMSA; LightShift Chemiluminescent EMSA kit (Thermo 20148), manufacturer's instructions; buffer, salt, pH and temperature not stated
# Settings: protein: recombinant, tags: GST (N-terminal, pGEX-4T-1), chain copies: 2, label: biotin
Binder,"binding result (printed strands differ by one nt: F1 has CCCGTT where R1 complement gives CCGTT (1-nt bulge or typo), P1 = F1/R1 by number)","binding result (blunt, P2 = F2/R2 by number)"
B1,binds,–
B2,–,binds
